Legend:
[1] = target: T1, LSm domain of Ataxin-2 (UniProt Q99700 242-344); test: size-exclusion chromatography; EMSA: 10 mM Tris pH 8.0, 25 mM KCl, 10 mM NaCl, 1 mM MgCl2, 10% glycerol, 0.5 mM DTT, 20 min, 25 C; SEC and SHAPE buffers not in material; settings: protein: recombinant, tags: His tag (pET-22b(+), NdeI/XhoI), single strand with flanking hairpins
[2] = target: LSmAD domain of Ataxin-2 (UniProt Q99700 353-475); test: EMSA; protein/RNA molar ratio up to 6; 1 mM MgCl2; EMSA: 10 mM Tris pH 8.0, 25 mM KCl, 10 mM NaCl, 1 mM MgCl2, 10% glycerol, 0.5 mM DTT, 20 min, 25 C; SEC and SHAPE buffers not in material; settings: protein: recombinant, tags: His tag, single strand with flanking hairpins
LSmAD domain of Ataxin-2, sequence (Q99700 353-475): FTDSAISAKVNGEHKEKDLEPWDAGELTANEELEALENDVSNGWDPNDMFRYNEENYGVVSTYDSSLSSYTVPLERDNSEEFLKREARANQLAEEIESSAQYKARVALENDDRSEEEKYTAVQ

[3] = target: T2, LSm-LSmAD M2 mutant of Ataxin-2 (UniProt Q99700 242-475, S315Q;S317T); test: EMSA; fully shifted at protein/RNA molar ratio 20; moderate affinity; 1 mM MgCl2; EMSA: 10 mM Tris pH 8.0, 25 mM KCl, 10 mM NaCl, 1 mM MgCl2, 10% glycerol, 0.5 mM DTT, 20 min, 25 C; SEC and SHAPE buffers not in material; settings: protein: recombinant; single strand with flanking hairpins
T2 sequence (Q99700 242-475 S315Q/S317T): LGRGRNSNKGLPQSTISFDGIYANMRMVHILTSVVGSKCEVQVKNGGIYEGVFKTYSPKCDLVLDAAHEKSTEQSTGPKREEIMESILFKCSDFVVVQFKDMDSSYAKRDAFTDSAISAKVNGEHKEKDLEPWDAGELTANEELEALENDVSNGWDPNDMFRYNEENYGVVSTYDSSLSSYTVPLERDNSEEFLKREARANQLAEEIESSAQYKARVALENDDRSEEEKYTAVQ

[4] = target: T1, LSm domain of Ataxin-2; test: SHAPE footprinting; AU-, GU-, CU-rich protected, less than with M2; CA-rich unchanged; EMSA: 10 mM Tris pH 8.0, 25 mM KCl, 10 mM NaCl, 1 mM MgCl2, 10% glycerol, 0.5 mM DTT, 20 min, 25 C; SEC and SHAPE buffers not in material; settings: protein: recombinant; tags: His tag (pET-22b(+), NdeI/XhoI)
[5] = target: T2, LSm-LSmAD M2 mutant of Ataxin-2; test: SHAPE footprinting; AU-, GU-, CU-rich protected, more than with LSm; CA-rich unchanged; EMSA: 10 mM Tris pH 8.0, 25 mM KCl, 10 mM NaCl, 1 mM MgCl2, 10% glycerol, 0.5 mM DTT, 20 min, 25 C; SEC and SHAPE buffers not in material; settings: protein: recombinant
[6] = target: T1, LSm domain of Ataxin-2; test: SHAPE footprinting; GU-, AU-, CU-rich protected (CU most); CA-rich unchanged; EMSA: 10 mM Tris pH 8.0, 25 mM KCl, 10 mM NaCl, 1 mM MgCl2, 10% glycerol, 0.5 mM DTT, 20 min, 25 C; SEC and SHAPE buffers not in material; settings: protein: recombinant; tags: His tag (pET-22b(+), NdeI/XhoI)
[7] = target: T2, LSm-LSmAD M2 mutant of Ataxin-2; test: as above; settings: protein: recombinant
[8] = target: T1, LSm domain of Ataxin-2; test: SHAPE footprinting; AU- and GU-rich protected (AU more than with M2); CA-rich unchanged; EMSA: 10 mM Tris pH 8.0, 25 mM KCl, 10 mM NaCl, 1 mM MgCl2, 10% glycerol, 0.5 mM DTT, 20 min, 25 C; SEC and SHAPE buffers not in material; settings: protein: recombinant; tags: His tag (pET-22b(+), NdeI/XhoI)
[9] = target: T2, LSm-LSmAD M2 mutant of Ataxin-2; test: SHAPE footprinting; AU- and GU-rich protected (GU more than with LSm); CA-rich unchanged; EMSA: 10 mM Tris pH 8.0, 25 mM KCl, 10 mM NaCl, 1 mM MgCl2, 10% glycerol, 0.5 mM DTT, 20 min, 25 C; SEC and SHAPE buffers not in material; settings: protein: recombinant

T1 sequence (Q99700 242-344): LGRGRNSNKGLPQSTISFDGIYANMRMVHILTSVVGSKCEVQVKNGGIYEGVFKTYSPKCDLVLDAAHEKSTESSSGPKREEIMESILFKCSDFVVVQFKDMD

B1: AU-rich RNA (structured_RNA)
RNA: GGCCUUCGGGCCAAAUUUUUAUUUUUAUUUUUAUUUUUAUUUUUUCGAUCCGGUUCGCCGGAUCCAAAUCGGGCUUCGGUCCGGUUC
binding result [1]: binds | binding result [2]: no binding | binding result [3]: binds

B2: RE2 (structured_RNA)
RNA: GGCCUUCGGGCCAAAUUUAUUUAUUUAUUUAGCGAGAAGUUGUUUGUUUGUGUUUGACGUCUGUGUGGACGUCACACACAGGAUGCAUCGGACCUUUUCCCCUUUUCCCUUUUCGAUCCGGUUCGCCGGAUCCAAAUCGGGCUUCGGUCCGGUUC
binding result [4]: binds | binding result [5]: binds

B3: RE5 (structured_RNA)
RNA: GGCCUUCGGGCCAAACCGUACACACACACAUGGCUAGACGGUAUGUUUGUUUGUUGUUUGUUUGUUGUUUGUUUGUGUUUGACGUAGGAAUUUAAUUUAAUUUAAUUUAAUUUAAUUUAAUUUACAGGCUACGUAGGCCAGGACCCCUCUUUUCUCCCCAGGACCCCUCUUUUCUCCCCAUUCACCCUCCCUUCUCCAGAGCGAUUCGAUCCGGUUCGCCGGAUCCAAAUCGGGCUUCGGUCCGGUUC
binding result [6]: binds | binding result [7]: binds

B4: RE1 (structured_RNA)
RNA: GGCCUUCGGGCCAAAUUUAUUUAUUUAUUUAUUUAGCUGACGAUCCACACACACAGGAAUCGACUCUGUUUGUUUGUGUUUGUUUGUACUGAAUUGGCACUUUUCCCCUUUUCCCUUUCUGGACUGGCAUCGAUCCGGUUCGCCGGAUCCAAAUCGGGCUUCGGUCCGGUUC
binding result [8]: binds | binding result [9]: binds

B5: AC-rich RNA (structured_RNA)
RNA: GGCCUUCGGGCCAAACCCCCACCCCCACCCCCACCCCCACCCCCUCGAUCCGGUUCGCCGGAUCCAAAUCGGGCUUCGGUCCGGUUC
binding result ([1]; two conformers in gel): no binding | binding result ([2]; two conformers in gel): no binding

— publication PMC11898529, “The LSmAD Domain of Ataxin-2 Modulates the Structure and RNA Binding of Its Preceding LSm Domain”
